Measured values as given in publication PMC10626419, “DONSON is required for CMG helicase assembly in the mammalian cell cycle” (EMBO Reports, 2023).

Target: T1, Recombinant mouse CMG helicase (CDC45‐MCM‐GINS) (mouse, UniProt Q9Z1X9 1-566; P97310 1-904; P25206 1-812; P49717 1-862; P49718 1-734; P97311 …)
T1 construct: CDC45, mouse; MCM2, mouse; MCM3, mouse; MCM4, mouse; MCM5, mouse; MCM6, mouse; MCM7, mouse; PSF1 (GINS subunit), mouse; fourth GINS subunit, mouse; PSF3 (GINS subunit), mouse; SLD5 (GINS subunit), mouse; The complex was captured on IgG Sepharose and released with TEV protease, so one subunit carried a cleavable tag; source: budding yeast strain YCE1259 co-expressing the 11 subunits, purified (IgG …)
Assay: co-IP; purified recombinant mouse DONSON and CMG incubated in 25 mM Hepes‐KOH pH 7.6, 200 mM KOAc, 0.02% NP‐40, 10 mM MgOAc, 1 mM DTT, 0.1 mg/ml BSA for 30 min on ice; CMG isolated on magnetic beads coupled to MCM6 antibody, 1 h on ice; immunoblotting (Fig 1C)
Conditions: both partners purified

B1: Recombinant mouse DONSON (natural protein, UniProt Q9QXP4 1-560, looked up)
chain: MAVSVPGYSPSFKRPPETVRLRRKRSRDHGAAVPASLPEPAPRRAALAAGLPLRPFPTAGGRGGAAATIARRNPFARLDNRPRVSDEASEEPLRGPQGASGPLLDSNEENNLLWEDTSSHERTGTELSQSQRVSLSESDTWSSDGTELPVDWSIKTRLLFTSSQPFSWADHLKAQEEAQGLVQHCRATEVTLPQSIQDPKLSTALRCAFQQALVYWLHPAFSWLPLFPRIGADRKMAAKTSPWSADETLQHALMSDWSVSFTSLYNLLKTKLCPYFYVCSYQFTVLFRAAGLAGSSVITALISPTTRGLREAMRNEGIEFSLPLLEEIGHKKKVRDPSLESEEEQAVSDEDEEESFSWLEEIGVQDQIKKPDVISIKLRKEKHEVQMDHRPESVVLVKGLNTFKLLNFLINCKSLVATSGAQAGLPPTLLSPIAFRGASMQMLKARSSNVKTQALSGYRDKFSLDITGPVMPHALHSMSMLLRSSQRGSFSAGLYAHEPTAVFNVGLSLDKELDRKVAREDLANCGLHPKTLEQLSQRPVLGKSSLRSVEMSDYILSWRS
notes: DONSON, mouse; also called His‐SUMO‐DONSON (before cleavage); source: E. coli Rosetta (DE3) pLys, purified (Ni‐NTA, ULP1 cleavage, Superdex 200)
  binding result: binds
